System: O=c1[nH]c(=O)c2[nH]cnc2[nH]1
Experiment: cells, lysate or membranes
Conditions: labelled compound, H+ symport, MM pH 6.8, 37 °C

Substance: UapA (Aspergillus nidulans FGSC A4; K73A/R133A)
- Km: 3.6 µM

Substance: UapA (Aspergillus nidulans FGSC A4)
- Km: 5 ± 2 µM
